Assay: Phase 1 clinical study of BA3011: safety (adverse events, DLT, MTD, RP2D)
Format: in vivo, human
Settings: for Alanine aminotransferase increased, % / Alopecia, % / Anemia, % / Arthralgia, % / Aspartate aminotransferase increased, % / Blood alkaline phosphatase increased, % / Blood bilirubin increased, % / Bone pain, % / Constipation, % / Decreased appetite, % / Diarrhea, % / Fatigue, % / Hypokalemia, % / Hyponatremia, % / Lymphocyte count decreased, % / Nausea, % / Neutrophil count decreased, % / Patients with at least one TEAE, % / Peripheral neuropathy, % / Stomatitis, % / Vomiting, %: sarcoma patients
Source text: MTD evaluation will be based on the DLT-evaluable Population. The DLT-evaluable Population includes all patients enrolled in Phase 1 dose escalation who receive at least 1 full assigned dose of BA3011 and complete the safety follow-up through the DLT-evaluation period (defined as the time period from the first dose of BA3011 through 21 days post Dose 1) or experience any DLT during the DLT-evaluation period. Non-DLT-evaluable patients will be replaced. The safety evaluation will be based on the As-Treated Population. Adverse events (AEs) will be coded by Medical Dictionary for Regulatory Activities (MedDRA) and graded according to the NCI CTCAE v4.03, and the type, incidence, severity, and relationship to each IP will be summarized. If any associations of interest between AEs and baseline characteristics are observed, additional stratified results may be presented. All treatment-emergent AEs will be summarized by MedDRA system organ class and preferred term. Laboratory abnormalities with toxicity grades according to the NCI CTCAE will be summarized.
A DLT is defined as meeting 1 of the following criteria during the 21-day DLT evaluation period or a treatment-related toxicity of any grade requiring dose delay of 1 week or more between the first and second cycles: • Non-hematologic Toxicity • For non-hematologic toxicities, DLT will be defined as any National Cancer Institute (NCI) Common Terminology Criteria for Adverse Events (CTCAE) v4.03 (published 14 Jun. 2010) Grade 3 or greater toxicity at least possibly related to treatment, except for: • Grade 3 fatigue. • Grade 3 nausea and vomiting lasting less than 24 hours. • Grade 3 non-hematologic laboratory abnormalities that are asymptomatic and resolve to Grade 1 or baseline (if the patient entered the study with existing toxicity) within 14 days. • Grade 3 or 4 allergic or hypersensitivity reaction at first occurrence in the absence of prophylactic steroid that resolves in less than 6 hours with appropriate clinical intervention
• DLT for hematologic toxicity, using NCI CTCAE v4.03, will be defined as: • Grade 4 neutropenia lasting greater than 7 days. • Grade 3 or 4 febrile neutropenia. • Grade 4 platelet count (<25,000/mm3) at any time.
Study BA3011-001 was an ongoing, multi-center, open-label, Phase 1/2 first-in-human trial of BA3011.
In Phase 1 (NCT03425279), BA3011 was administered once (Q3W) or twice (2Q3W) every 3 weeks via intravenous (IV) infusion.

[1] = 0.3 mg/kg Q3W, 1 sarcoma patient, Phase 1
[2] = 1.2 mg/kg 2Q3W, 2 sarcoma patients, Phase 1
[3] = 1.8 mg/kg 2Q3W, 19 sarcoma patients, Phase 1
[4] = 1.8 mg/kg Q3W, 2 sarcoma patients, Phase 1
[5] = 2.4 mg/kg Q3W, 2 sarcoma patients, Phase 1
[6] = Related TEAEs, All Grades, Phase 1
[7] = Related TEAEs, Grade 3, Phase 1
[8] = Related TEAEs, Grade 4, Phase 1
[9] = Total, 26 sarcoma patients, Phase 1

B1: Mecbotamab vedotin (conjugate, chains of the INN, looked up)
VH: EVQLVQSGAEVKKPGATVKISCKVSGYSFWGATMNWIRQPPGKGLEWIGLIKPSNGGTSYNQKFKGRVTISADKSISTAYLQWSSLKASDTAMYYCAHGHYESYEAMDYWGQGTLVTVSS
VL: DIQMTQSPSSLSASVGDRVTITCKASQDVVSAVAWYQQKPGQAPRLLIYWQDTRHTGVPSRFSGSGSGTEFTLTISSLQPDDFATYYCQEHFSPPLTFGQGTKVEIK
modifications: MC-vc-PAB-MMAE conjugate
Which results are given for B1?
Any TEAE, % of patients [1]: 100.0%; Any TEAE, no. of patients [1]: 1; Any related serious TEAE, no. of patients [1]: 0; Any serious TEAE, no. of patients [1]: 0; Related TEAE leading to treatment discontinuation, no. of patients [1]: 0; Related TEAEs with CTCAE grade 3 or 4, no. of patients [1]: 0; TEAE leading to treatment discontinuation, no. of patients [1]: 0; TEAE with CTCAE grade 3 or 4, no. of patients [1]: 0; TEAEs leading to death, no. of patients [1]: 0; Any TEAE, % of patients [2]: 100.0%; Any TEAE, no. of patients [2]: 2; Any related serious TEAE, no. of patients [2]: 0; Any serious TEAE, no. of patients [2]: 0; Related TEAE leading to treatment discontinuation, no. of patients [2]: 0; Related TEAEs with CTCAE grade 3 or 4, no. of patients [2]: 0; TEAE leading to treatment discontinuation, no. of patients [2]: 0; TEAE with CTCAE grade 3 or 4, % of patients [2]: 100.0%; TEAE with CTCAE grade 3 or 4, no. of patients [2]: 2; TEAEs leading to death, no. of patients [2]: 0; Any TEAE, % of patients [3]: (100.0%); Any TEAE, no. of patients [3]: 19; Any related serious TEAE, % of patients [3]: (5.3%); Any serious TEAE, % of patients [3]: (36.8%); Any serious TEAE, no. of patients [3]: 7; Related TEAE leading to treatment discontinuation, % of patients [3]: (10.5%); Related TEAEs with CTCAE grade 3 or 4, % of patients [3]: (57.9%); Related TEAEs with CTCAE grade 3 or 4, no. of patients [3]: 11; TEAE leading to treatment discontinuation, % of patients [3]: (10.5%); TEAE leading to treatment discontinuation, no. of patients [3]: 2; TEAE with CTCAE grade 3 or 4, % of patients [3]: (68.4%); TEAE with CTCAE grade 3 or 4, no. of patients [3]: 13; TEAEs leading to death, no. of patients [3]: 0; Any related serious TEAE, no. of patients (1.8 mg/kg 2Q3W, 19 sarcoma patients, Phase 1, hepatic encephalopathy, CTCAE grade 2): 1; Related TEAE leading to treatment discontinuation, no. of patients (1.8 mg/kg 2Q3W, 19 sarcoma patients, Phase 1, neuropathy peripheral grade 2, fatigue grade 3): 2; Any TEAE, % of patients [4]: (100.0%); Any TEAE, no. of patients [4]: 2; Any related serious TEAE, no. of patients [4]: 0; Any serious TEAE, % of patients [4]: (50.0%); Any serious TEAE, no. of patients [4]: 1; Related TEAE leading to treatment discontinuation, no. of patients [4]: 0; Related TEAEs with CTCAE grade 3 or 4, no. of patients [4]: 0; TEAE leading to treatment discontinuation, no. of patients [4]: 0; TEAE with CTCAE grade 3 or 4, % of patients [4]: (50.0%); TEAE with CTCAE grade 3 or 4, no. of patients [4]: 1; TEAEs leading to death, no. of patients [4]: 0; Any TEAE, % of patients [5]: (100.0%); Any TEAE, no. of patients [5]: 2; Any related serious TEAE, no. of patients [5]: 0; Any serious TEAE, % of patients [5]: (50.0%); Any serious TEAE, no. of patients [5]: 1; Related TEAE leading to treatment discontinuation, no. of patients [5]: 0; Related TEAEs with CTCAE grade 3 or 4, % of patients [5]: (50.0%); Related TEAEs with CTCAE grade 3 or 4, no. of patients [5]: 1; TEAE leading to treatment discontinuation, no. of patients [5]: 0; TEAE with CTCAE grade 3 or 4, % of patients [5]: (50.0%); TEAE with CTCAE grade 3 or 4, no. of patients [5]: 1; TEAEs leading to death, no. of patients [5]: 0; Alanine aminotransferase increased, % (All TEAEs, All Grades, Phase 1): (46.2) %; Alopecia, % (All TEAEs, All Grades, Phase 1): (23.9) %; Anemia, % (All TEAEs, All Grades, Phase 1): (15.4) %; Arthralgia, % (All TEAEs, All Grades, Phase 1): (23.9) %; Aspartate aminotransferase increased, % (All TEAEs, All Grades, Phase 1): (42.3) %; Blood alkaline phosphatase increased, % (All TEAEs, All Grades, Phase 1): (23.9) %; Blood bilirubin increased, % (All TEAEs, All Grades, Phase 1): (3.8) %; Bone pain, % (All TEAEs, All Grades, Phase 1): (26.9) %; Constipation, % (All TEAEs, All Grades, Phase 1): (26.9) %; Decreased appetite, % (All TEAEs, All Grades, Phase 1): (23.9) %; Diarrhea, % (All TEAEs, All Grades, Phase 1): (26.9) %; Fatigue, % (All TEAEs, All Grades, Phase 1): (61.5) %; Hypokalemia, % (All TEAEs, All Grades, Phase 1): (15.4) %; Hyponatremia, % (All TEAEs, All Grades, Phase 1): (11.5) %; Lymphocyte count decreased, % (All TEAEs, All Grades, Phase 1): (7.7) %; Nausea, % (All TEAEs, All Grades, Phase 1): (58.3) %; Neutrophil count decreased, % (All TEAEs, All Grades, Phase 1): (26.9) %; Patients with at least one TEAE, % (All TEAEs, All Grades, Phase 1): (100.0) %; Peripheral neuropathy, % (All TEAEs, All Grades, Phase 1): (15.4) %; Stomatitis, % (All TEAEs, All Grades, Phase 1): (3.8) %; Vomiting, % (All TEAEs, All Grades, Phase 1): (23.9) %; Anemia, % (All TEAEs, Grade 3, Phase 1): (7.7) %; Aspartate aminotransferase increased, % (All TEAEs, Grade 3, Phase 1): (3.8) %; Blood bilirubin increased, % (All TEAEs, Grade 3, Phase 1): (3.8) %; Constipation, % (All TEAEs, Grade 3, Phase 1): (3.8) %; Hypokalemia, % (All TEAEs, Grade 3, Phase 1): (11.5) %; Hyponatremia, % (All TEAEs, Grade 3, Phase 1): (7.7) %; Lymphocyte count decreased, % (All TEAEs, Grade 3, Phase 1): (3.8) %; Nausea, % (All TEAEs, Grade 3, Phase 1): (3.8) %; Neutrophil count decreased, % (All TEAEs, Grade 3, Phase 1): (15.4) %; Patients with at least one TEAE, % (All TEAEs, Grade 3, Phase 1): (57.7) %; Peripheral neuropathy, % (All TEAEs, Grade 3, Phase 1): (3.8) %; Stomatitis, % (All TEAEs, Grade 3, Phase 1): (3.8) %; Vomiting, % (All TEAEs, Grade 3, Phase 1): (3.8) %; Neutrophil count decreased, % (All TEAEs, Grade 4, Phase 1): 3.8%; Patients with at least one TEAE, % (All TEAEs, Grade 4, Phase 1): 7.7%; on-target toxicity to normal AXL-expressing tissue (Phase 1): No clinically meaningful on-target toxicity was observed; rate of constipation (Phase 1): low; dose-limiting toxicities (Phase 1, highest dose tested): limited to monomethyl auristatin E (MMAE) conjugate-associated toxicity at the highest dose tested, including reversible neutropenia; SAE related to treatment (grade 2 hepatic encephalopathy) (Phase 1 sarcoma patients): 1 patient; patients with grade 3 related TEAEs (Phase 1 sarcoma patients): Eleven; patients with grade 4 neutropenia (Phase 1 sarcoma patients): 1 patient; treatment-emergent adverse events (TEAEs) leading to death (Phase 1 sarcoma patients): no treatment-emergent adverse events (TEAEs) leading to death; treatment-related TEAEs leading to treatment discontinuation (Phase 1 sarcoma patients): 2 (7.7%) patients; Alanine aminotransferase increased, % [6]: (38.5) %; Alopecia, % [6]: (23.1) %; Anemia, % [6]: (3.8) %; Arthralgia, % [6]: (3.8) %; Aspartate aminotransferase increased, % [6]: (42.3) %; Blood alkaline phosphatase increased, % [6]: (19.2) %; Blood bilirubin increased, % [6]: (3.8) %; Bone pain, % [6]: (3.8) %; Constipation, % [6]: (15.4) %; Decreased appetite, % [6]: (15.4) %; Diarrhea, % [6]: (19.2) %; Fatigue, % [6]: (42.3) %; Hypokalemia, % [6]: (15.4) %; Hyponatremia, % [6]: (3.8) %; Lymphocyte count decreased, % [6]: (7.7) %; Nausea, % [6]: (38.5) %; Neutrophil count decreased, % [6]: (26.9) %; Patients with at least one TEAE, % [6]: (84.6) %; Peripheral neuropathy, % [6]: (15.4) %; Stomatitis, % [6]: (3.8) %; Vomiting, % [6]: (19.2) %; Anemia, % [7]: (3.8) %; Aspartate aminotransferase increased, % [7]: (3.8) %; Blood bilirubin increased, % [7]: (3.8) %; Hypokalemia, % [7]: (11.5) %; Hyponatremia, % [7]: (3.8) %; Lymphocyte count decreased, % [7]: (3.8) %; Nausea, % [7]: (3.8) %; Neutrophil count decreased, % [7]: (15.4) %; Patients with at least one TEAE, % [7]: (42.3) %; Peripheral neuropathy, % [7]: (3.8) %; Stomatitis, % [7]: (3.8) %; Vomiting, % [7]: (3.8) %; Neutrophil count decreased, % [8]: 3.8%; Patients with at least one TEAE, % [8]: 3.8%; Any TEAE, % of patients [9]: (100.0)%; Any TEAE, no. of patients [9]: 26; Any related serious TEAE, % of patients [9]: (3.8%); Any related serious TEAE, no. of patients [9]: 1; Any serious TEAE, % of patients [9]: (34.6%); Any serious TEAE, no. of patients [9]: 9; Related TEAE leading to treatment discontinuation, no. of patients [9]: 2; Related TEAEs with CTCAE grade 3 or 4, % of patients [9]: (46.2%); Related TEAEs with CTCAE grade 3 or 4, no. of patients [9]: 12; TEAE leading to treatment discontinuation, % of patients [9]: (7.7%); TEAE leading to treatment discontinuation, no. of patients [9]: 2; TEAE with CTCAE grade 3 or 4, % of patients [9]: (65.4%); TEAE with CTCAE grade 3 or 4, no. of patients [9]: 17; TEAEs leading to death, no. of patients [9]: 0; transient grade 1-2 liver enzyme elevations (seen during cycle 1 treatment): generally did not re-occur upon re-treatment; creatinine levels (throughout treatment): generally unchanged throughout treatment
